Molecular target: T1, AtWRI1 (Arabidopsis thaliana) (UniProt Q6X5Y6)
T1 sequence: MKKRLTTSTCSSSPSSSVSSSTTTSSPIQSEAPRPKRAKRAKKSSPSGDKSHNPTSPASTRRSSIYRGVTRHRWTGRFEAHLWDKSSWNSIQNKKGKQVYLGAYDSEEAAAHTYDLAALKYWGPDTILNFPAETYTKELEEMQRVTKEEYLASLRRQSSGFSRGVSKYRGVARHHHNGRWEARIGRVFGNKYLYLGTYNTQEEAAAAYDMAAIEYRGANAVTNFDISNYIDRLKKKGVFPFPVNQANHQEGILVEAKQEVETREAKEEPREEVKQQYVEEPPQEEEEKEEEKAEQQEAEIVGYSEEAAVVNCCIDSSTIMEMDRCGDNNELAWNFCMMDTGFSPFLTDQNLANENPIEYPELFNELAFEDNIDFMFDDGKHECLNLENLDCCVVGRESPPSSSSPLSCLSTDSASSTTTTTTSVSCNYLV
Assay: EMSA
Conditions: fEMSA: 150 mM KCl, 0.1 mM DTT, 10 mM Tris pH 7.4, 150 ng poly(dI-dC), 50 ng Cy5 probe, 10 ul, 30 min, room temperature

TAAAAGAGTTGGGTTTCTTCGTAAGCATCGAAATCAGATTTCTTTACCAAAGAAAAAATAAAGAAAAGAAAAATATAGCAAGTACACTGCATTTCAACACTCTCATATCTCTCCTTCCTACTTCCTCGGTTTCATCGTCCACTGTCTCAA (double strand) [BCCP2up (-2/-151)]
binding: binds
